In the supplement of paper PMC10065799, “High-throughput profiling of sequence recognition by tyrosine kinases and SH2 domains using bacterial peptide display” (eLife, 2023):

Key:
FGFR1 = FGFR1 (UniProt P11362); assay: phosphorylation enrichment, bacterial display (enrichment ratio); higher = better substrate or ligand; peptides without Tyr show the background
Jak2 = Jak2 (UniProt O60674); assay: as above
c-Src = assay: as above
c-Abl (mouse) = assay: as above
Fyn = Fyn (UniProt P06241); assay: as above
Hck = Hck (UniProt P08631); assay: as above
FGFR3 = FGFR3 (UniProt P22607); assay: as above
EPHB1 = EPHB1 (UniProt P54762); assay: as above
MERTK = MERTK (UniProt Q12866); assay: as above
Fer (mouse) = assay: as above
EPHB2 = EPHB2 (UniProt P29323); assay: as above
Fes = Fes (UniProt P07332); assay: as above
AncSZ = assay: as above
c-Src SH2 = assay: SH2 binding enrichment of the phosphorylated peptide, bacterial display (enrichment ratio); higher = better substrate or ligand; peptides without Tyr show the background
Grb2 SH2 = Grb2 SH2 (UniProt P62993); assay: as above
SHP2-C SH2 = assay: as above
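For SH2 binding enrichment of the phosphorylated peptide, bacterial display in this document: peptide library displayed on the E. coli surface as eCPX fusions, selected cells deep-sequenced, score is each peptide's frequency after selection divided by its frequency in the input.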
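For phosphorylation enrichment, bacterial display in this document: 11-residue human phosphosite peptides and single-mutation variants displayed on the E. coli surface, counted by deep sequencing, each peptide's frequency after selection divided by its frequency in the unselected input library; frequency after pTyr selection over input frequency; kinase dosed for 20-30% of maximal phosphorylation in three min.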

Sequence of MERTK (Q12866 whole entry, looked up): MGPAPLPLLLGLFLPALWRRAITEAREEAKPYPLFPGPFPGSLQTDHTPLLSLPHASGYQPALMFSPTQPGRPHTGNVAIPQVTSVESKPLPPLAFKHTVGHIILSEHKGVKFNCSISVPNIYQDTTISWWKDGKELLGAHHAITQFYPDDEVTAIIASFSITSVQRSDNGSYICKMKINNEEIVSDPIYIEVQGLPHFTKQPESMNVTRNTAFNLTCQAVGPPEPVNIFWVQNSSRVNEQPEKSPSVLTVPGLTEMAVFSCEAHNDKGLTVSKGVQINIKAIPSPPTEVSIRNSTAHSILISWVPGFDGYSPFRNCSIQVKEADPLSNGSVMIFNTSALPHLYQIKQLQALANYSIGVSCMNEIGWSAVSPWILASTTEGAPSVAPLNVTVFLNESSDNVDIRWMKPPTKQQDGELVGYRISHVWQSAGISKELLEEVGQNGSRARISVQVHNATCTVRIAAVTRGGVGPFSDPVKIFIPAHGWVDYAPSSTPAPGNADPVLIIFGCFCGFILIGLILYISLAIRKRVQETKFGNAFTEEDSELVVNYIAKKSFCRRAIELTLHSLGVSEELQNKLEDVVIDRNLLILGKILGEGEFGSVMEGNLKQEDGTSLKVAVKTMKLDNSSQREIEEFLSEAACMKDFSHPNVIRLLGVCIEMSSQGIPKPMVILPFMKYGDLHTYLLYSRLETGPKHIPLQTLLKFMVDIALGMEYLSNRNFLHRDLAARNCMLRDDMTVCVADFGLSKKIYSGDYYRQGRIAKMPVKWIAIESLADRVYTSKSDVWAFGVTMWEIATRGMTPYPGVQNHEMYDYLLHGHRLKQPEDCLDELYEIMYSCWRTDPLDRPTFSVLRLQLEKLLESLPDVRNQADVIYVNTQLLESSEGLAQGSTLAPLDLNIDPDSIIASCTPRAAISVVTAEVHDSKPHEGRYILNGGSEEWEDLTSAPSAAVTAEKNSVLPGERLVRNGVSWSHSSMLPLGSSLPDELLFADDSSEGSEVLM
Sequence of FGFR1 (P11362 whole entry, looked up): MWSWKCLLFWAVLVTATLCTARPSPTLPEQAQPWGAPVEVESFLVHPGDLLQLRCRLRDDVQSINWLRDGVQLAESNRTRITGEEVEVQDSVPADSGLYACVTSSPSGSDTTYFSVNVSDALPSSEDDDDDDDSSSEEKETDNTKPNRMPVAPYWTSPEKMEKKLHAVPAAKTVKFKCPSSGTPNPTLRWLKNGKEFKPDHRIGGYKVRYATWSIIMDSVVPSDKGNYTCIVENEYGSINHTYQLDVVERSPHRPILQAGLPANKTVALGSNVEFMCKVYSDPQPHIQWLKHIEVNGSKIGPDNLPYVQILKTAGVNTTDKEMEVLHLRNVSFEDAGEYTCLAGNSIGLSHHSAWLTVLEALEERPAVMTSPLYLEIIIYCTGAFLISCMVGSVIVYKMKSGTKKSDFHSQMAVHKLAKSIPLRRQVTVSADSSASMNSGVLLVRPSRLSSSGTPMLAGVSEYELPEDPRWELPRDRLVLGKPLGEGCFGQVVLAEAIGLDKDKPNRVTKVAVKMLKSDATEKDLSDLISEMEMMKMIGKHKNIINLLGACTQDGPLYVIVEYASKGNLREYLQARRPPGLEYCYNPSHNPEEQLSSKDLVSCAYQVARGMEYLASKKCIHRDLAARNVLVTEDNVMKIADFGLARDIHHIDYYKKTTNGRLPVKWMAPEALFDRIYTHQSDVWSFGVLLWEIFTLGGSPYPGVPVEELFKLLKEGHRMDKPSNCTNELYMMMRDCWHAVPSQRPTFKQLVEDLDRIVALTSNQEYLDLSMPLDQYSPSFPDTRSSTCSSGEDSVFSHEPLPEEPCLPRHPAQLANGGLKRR
Sequence of Fes (P07332 whole entry, looked up): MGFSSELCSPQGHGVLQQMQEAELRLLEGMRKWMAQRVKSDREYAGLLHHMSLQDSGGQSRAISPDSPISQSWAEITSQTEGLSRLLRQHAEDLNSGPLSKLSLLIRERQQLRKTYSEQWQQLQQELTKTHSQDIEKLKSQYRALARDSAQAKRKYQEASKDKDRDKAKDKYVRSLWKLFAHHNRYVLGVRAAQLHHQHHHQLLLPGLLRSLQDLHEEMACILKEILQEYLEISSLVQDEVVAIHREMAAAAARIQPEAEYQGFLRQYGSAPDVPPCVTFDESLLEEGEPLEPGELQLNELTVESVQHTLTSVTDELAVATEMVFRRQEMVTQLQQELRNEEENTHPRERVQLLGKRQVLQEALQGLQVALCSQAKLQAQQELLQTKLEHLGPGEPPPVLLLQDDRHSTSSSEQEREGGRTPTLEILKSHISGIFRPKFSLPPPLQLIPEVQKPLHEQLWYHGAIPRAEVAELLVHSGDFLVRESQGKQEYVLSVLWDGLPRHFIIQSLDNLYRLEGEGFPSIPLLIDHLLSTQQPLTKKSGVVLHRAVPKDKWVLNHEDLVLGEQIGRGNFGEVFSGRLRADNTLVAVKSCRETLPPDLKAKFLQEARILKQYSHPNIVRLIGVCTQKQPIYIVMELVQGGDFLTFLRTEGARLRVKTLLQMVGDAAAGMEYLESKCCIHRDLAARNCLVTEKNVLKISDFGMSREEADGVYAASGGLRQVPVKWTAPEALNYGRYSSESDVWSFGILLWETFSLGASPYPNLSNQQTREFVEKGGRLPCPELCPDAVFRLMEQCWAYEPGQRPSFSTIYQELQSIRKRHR
Sequence of Fyn (P06241 whole entry, looked up): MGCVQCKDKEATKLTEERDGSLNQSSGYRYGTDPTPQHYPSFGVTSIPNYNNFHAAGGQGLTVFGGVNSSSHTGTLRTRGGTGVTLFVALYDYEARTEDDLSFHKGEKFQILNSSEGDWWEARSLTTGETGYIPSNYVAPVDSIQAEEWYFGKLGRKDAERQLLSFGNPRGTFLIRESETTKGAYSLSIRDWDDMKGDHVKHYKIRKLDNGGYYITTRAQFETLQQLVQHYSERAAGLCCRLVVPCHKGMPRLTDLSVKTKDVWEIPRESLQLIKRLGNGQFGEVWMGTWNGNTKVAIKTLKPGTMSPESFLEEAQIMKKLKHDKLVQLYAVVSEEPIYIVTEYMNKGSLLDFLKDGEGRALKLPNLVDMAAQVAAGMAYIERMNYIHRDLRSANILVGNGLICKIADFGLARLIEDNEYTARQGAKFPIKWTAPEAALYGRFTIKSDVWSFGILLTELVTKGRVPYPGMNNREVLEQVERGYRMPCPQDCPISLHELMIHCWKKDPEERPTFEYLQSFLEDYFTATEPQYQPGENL
Sequence of EPHB2 (P29323 whole entry, looked up): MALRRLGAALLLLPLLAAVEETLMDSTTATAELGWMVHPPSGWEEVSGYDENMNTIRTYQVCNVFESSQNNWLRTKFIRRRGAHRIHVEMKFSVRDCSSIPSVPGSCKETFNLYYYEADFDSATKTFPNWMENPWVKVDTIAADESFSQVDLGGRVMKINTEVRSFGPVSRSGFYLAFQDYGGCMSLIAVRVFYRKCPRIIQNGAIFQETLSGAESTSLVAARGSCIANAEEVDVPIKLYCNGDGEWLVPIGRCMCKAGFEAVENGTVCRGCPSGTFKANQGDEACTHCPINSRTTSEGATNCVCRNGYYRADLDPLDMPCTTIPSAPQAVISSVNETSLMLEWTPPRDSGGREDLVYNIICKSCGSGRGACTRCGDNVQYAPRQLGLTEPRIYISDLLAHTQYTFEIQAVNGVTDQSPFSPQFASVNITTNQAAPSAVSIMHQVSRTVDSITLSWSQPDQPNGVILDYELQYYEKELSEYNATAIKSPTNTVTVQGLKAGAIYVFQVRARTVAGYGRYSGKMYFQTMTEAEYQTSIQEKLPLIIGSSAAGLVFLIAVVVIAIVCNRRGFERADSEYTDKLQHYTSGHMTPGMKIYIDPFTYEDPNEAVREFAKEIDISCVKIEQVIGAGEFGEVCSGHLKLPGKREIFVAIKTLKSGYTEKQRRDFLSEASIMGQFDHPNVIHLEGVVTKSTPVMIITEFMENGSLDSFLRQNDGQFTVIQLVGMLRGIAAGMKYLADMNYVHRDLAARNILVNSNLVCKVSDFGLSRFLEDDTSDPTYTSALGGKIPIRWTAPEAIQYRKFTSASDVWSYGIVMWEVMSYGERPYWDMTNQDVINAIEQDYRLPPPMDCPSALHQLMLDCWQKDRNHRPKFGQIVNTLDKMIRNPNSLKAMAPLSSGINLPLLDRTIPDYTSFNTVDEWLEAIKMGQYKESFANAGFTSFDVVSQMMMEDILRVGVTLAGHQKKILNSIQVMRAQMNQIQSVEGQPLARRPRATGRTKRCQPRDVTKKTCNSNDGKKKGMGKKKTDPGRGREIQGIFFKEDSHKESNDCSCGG
Sequence of Hck (P08631 whole entry, looked up): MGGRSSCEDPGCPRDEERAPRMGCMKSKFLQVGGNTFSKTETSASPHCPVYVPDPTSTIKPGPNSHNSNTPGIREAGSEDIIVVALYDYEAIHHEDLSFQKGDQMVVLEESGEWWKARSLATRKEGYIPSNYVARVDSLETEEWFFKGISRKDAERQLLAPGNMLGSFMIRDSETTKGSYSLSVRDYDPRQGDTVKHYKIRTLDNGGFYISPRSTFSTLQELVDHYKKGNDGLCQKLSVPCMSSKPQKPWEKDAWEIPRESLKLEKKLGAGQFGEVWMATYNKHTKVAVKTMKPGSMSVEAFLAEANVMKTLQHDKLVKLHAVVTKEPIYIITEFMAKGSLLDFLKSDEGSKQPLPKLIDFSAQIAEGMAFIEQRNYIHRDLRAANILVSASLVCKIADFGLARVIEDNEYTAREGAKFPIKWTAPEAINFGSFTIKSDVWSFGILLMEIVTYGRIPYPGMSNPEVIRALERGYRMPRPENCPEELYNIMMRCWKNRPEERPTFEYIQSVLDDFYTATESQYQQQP

SH2 binding enrichment (c-Src SH2) | SH2 binding enrichment (Grb2 SH2) | SH2 binding enrichment (SHP2-C SH2) | Sequence | phosphorylation enrichment (FGFR1) | phosphorylation enrichment (Jak2) | phosphorylation enrichment (c-Src) | phosphorylation enrichment (c-Abl (mouse)) | phosphorylation enrichment (Fyn) | phosphorylation enrichment (Hck) | phosphorylation enrichment (FGFR3) | phosphorylation enrichment (EPHB1) | phosphorylation enrichment (MERTK) | phosphorylation enrichment (Fer (mouse)) | phosphorylation enrichment (EPHB2) | phosphorylation enrichment (Fes) | phosphorylation enrichment (AncSZ)
0.405 | 0.768 | 0.587 | NWGSPYKSDGC [ZNF347_Y261_N264D] | 0.562 | 0.673 | 0.397 | 0.723 | 0.4 | 0.442 | 0.522 | 0.486 | 0.345 | 0.394 | 0.51 | 0.864 | 0.864
0.649 | 1.14 | 0.815 | PFTDPYFDFEI [ZC3H18_Y371_A368T_YF] | 16.2 | 2.84 | 5.82 | 1.03 | 2.06 | 1.17 | 12.4 | 0.835 | 0.898 | 2 | 0.64 | 1.88 | 2.52

The remaining lines, values behind:

Sequence | SH2 binding enrichment (c-Src SH2) | SH2 binding enrichment (Grb2 SH2) | SH2 binding enrichment (SHP2-C SH2) | phosphorylation enrichment (FGFR1) | phosphorylation enrichment (Jak2) | phosphorylation enrichment (c-Src) | phosphorylation enrichment (c-Abl (mouse)) | phosphorylation enrichment (Fyn) | phosphorylation enrichment (Hck) | phosphorylation enrichment (FGFR3) | phosphorylation enrichment (EPHB1) | phosphorylation enrichment (MERTK) | phosphorylation enrichment (Fer (mouse)) | phosphorylation enrichment (EPHB2) | phosphorylation enrichment (Fes) | phosphorylation enrichment (AncSZ)
PADCRYFTFPQ [GAMT_Y222_A224T_YF] | 2.07 | 1.33 | 1.78 | 1.2 | 2.88 | 2.58 | 0.944 | 0.61 | 0.761 | 1.09 | 0.613 | 1.66 | 0.68 | 0.483 | 1.53 | 1.1
PATINYLFEKG [NDUFS8_Y84_P85L] | 0.611 | 1.05 | 0.663 | 0.796 | 0.703 | 0.435 | 0.293 | 0.357 | 0.562 | 0.963 | 0.541 | 0.36 | 0.43 | 0.529 | 0.891 | 0.754
PDGHEYIFVDP [PDGFRA_Y572_YF] | 1.65 | 0.662 | 0.761 | 2.86 | 0.73 | 0.495 | 0.466 | 0.712 | 0.54 | 1.99 | 0.644 | 0.311 | 0.576 | 0.719 | 1.04 | 2.01
PDMHSYVVRYN [GRIN2D_Y732_M733V] | 0.544 | 0.812 | 0.825 | 0.56 | 1.04 | 0.603 | 0.694 | 0.554 | 0.721 | 0.844 | 0.787 | 0.413 | 0.434 | 0.723 | 1.13 | 1.13
PFDAEYGGGGG [AKR1B10_Y316_N313D] | 0.378 | 0.747 | 0.798 | 1.16 | 1.66 | 0.918 | 1.31 | 1.13 | 1.14 | 1.09 | 0.843 | 0.783 | 0.784 | 1.48 | 1.5 | 1.81
PGIRMYQVQYN [LRFN1_Y454] | 1.02 | 1.22 | 1.37 | 0.67 | 1.24 | 0.727 | 0.995 | 0.815 | 0.503 | 0.863 | 0.93 | 0.764 | 0.446 | 0.92 | 1.39 | 1.06
